Drawing on article doi:10.1101/2025.07.08.663041, this text covers stoichiometry N for 2 substances.

Assay [1] concerns the target Caveolin-1 I121C 98W (UniProt Q03135).
For assay [2], the target named is Caveolin-1 L125C 98W (UniProt Q03135).

In general, stoichiometry N refers to a count of units in the complex or per binding partner. On to “Caveolin-1 I121C 98W (from UniProt Q03135 1-178) (natural protein)”, for which, in assay [1], the stoichiometry N is 2.

In the case of “Caveolin-1 L125C 98W (from UniProt Q03135 1-178) (natural protein)”, the stoichiometry N in assay [2] was determined as 2.
